Laboratory results published in patent publication EP0813419B1 (YEDA RESEARCH & DEVELOPMENT COMPANY, LTD., dated 2005).

T1: intracellular domain of the human p75 TNF receptor (human, UniProt P20333 288-461, limits assumed)
T1 construct: domain: intracellular domain; construct not described; also called p75IC
T1 sequence (looked up): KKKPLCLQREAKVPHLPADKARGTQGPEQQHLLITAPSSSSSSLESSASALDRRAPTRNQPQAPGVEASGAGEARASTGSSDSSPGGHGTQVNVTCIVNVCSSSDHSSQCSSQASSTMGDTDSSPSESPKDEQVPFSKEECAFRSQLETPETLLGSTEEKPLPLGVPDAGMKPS

B1: 'death domain' (DD) of human MORT-1 (residues 92-208) (other, not shown: large carriers)
chain: PGEEDLCAAFNVICDNVGKDWRRLARQLKVSDTKIDSIEDRYPRNLTERVRESLRIWKNTEKENATVAHLVGALRSCQMNLVADLVQEVQQARDLQNRSGAMSPMSWNSDASTSEAS
notes: Gal4 hybrid construct in yeast; also called HF1; MORT-1 DD
B2: 'death domain' (DD) of human TRADD (residues 195-312) (other, not shown: large carriers)
chain: PPPPAQTFLFQGQPVVNRPLSLKDQQTFARSVGLKWRKVGRSLQRGCRALRDPALDSLAYEYEREGLYEQAFQLLRRFVQAEGRRATLQRLVEALEENELTSLAEDLLGLTDPNGGLA
notes: Gal4 hybrid construct in yeast; also called TRADD DD

How the values were obtained:
[1] = target: B2; test: yeast two-hybrid (Gal4 DBD and AD fusions, SFY526), beta-galactosidase filter assay
[2] = target: T1, intracellular domain of the human p75 …; test: yeast two-hybrid specificity test (not shown)
[3] = target: the molecule itself; test: yeast two-hybrid (Gal4 DBD and AD fusions, SFY526), beta-galactosidase filter assay; self-association
[4] = target: B2; test: yeast two-hybrid specificity test (not shown)
[5] = target: B1; test: yeast two-hybrid specificity test (not shown)

Binder | binding result [1] | binding result [2] | binding result [3] | binding result [4] | binding result [5]
B1 | binds | no binding | no binding | – | –
B2 | – | no binding | binds | – | –
DD of the rat low-affinity NGF receptor (receptor, UniProt P07174 340-425, looked up, domain: DD; Two-hybrid control; construct not described) LPLTKREEVEKLLNGDTWRHLAGELGYQPEHIDSFTHEACPVRALLASWGAQDSATLDALLAALRRIQRADIVESLCSESTATSPV | – | – | – | no binding | no binding
